Results from the Human Domainome abundance scans (Beltran et al. 2025).
± gives the uncertainty stated by the source.

B1: Protein C-ets-1, residues 55 to 135; numbered along this chain, P14921 (parent)
chain: GFTKEQQRLGIPKDPRQWTETHVRDWVMWAVNEFSLKGVDFQKFCMNGAALCALGKDCFLELAPDFVGDILWEHLEILQKE

Variants of: B1
Experiment: abundance fitness (aPCA) (normalised: wild type 0, dead -1); higher = more abundant; growth selection in yeast, the domain comes from the species named
Conditions: Homo sapiens

| Variant | abundance fitness |
| --- | --- |
| GFTKEQQRLGIPKDPRQWTETHVRDWVMWAVNEFSLKGVDFQKFCMNGAALCALGKDCFLELAPDFVGDILWEHLQILQKE [E76Q] | -0.043 ± 0.062 |
| GFTKEQQRLGIPKDPRQWTETHVRDWVMWAVNEFSLKGVDFQKFCMNGAALCALGKDCFLELAPDFVGDILWEHLAILQKE [E76A] | -0.043 ± 0.044 |
| GFTKEQQRLGIPKDPRQWTETHVRDWVMWAVNEFSLKGVDFQKFCMNGAALCALGKDCFLELAPDFVGDILWEHLIILQKE [E76I] | -0.267 ± 0.13 |
| GFTKEQQRLGIPKDPRQWTETHVRDWVMWAVNEFSLKGVDFQKFCMNGAALCALGKDCFLELAPDFVGDILWEHLMILQKE [E76M] | 0.04 ± 0.063 |
| GFTKEQQRLGIPKDPRQWTETHVRDWVMWAVNEFSLKGVDFQKFCMNGAALCALGKDCFLELAPDFVGDILWEHLPILQKE [E76P] | -0.205 ± 0.058 |
| GFTKEQQRLGIPKDPRQWTETHVRDWVMWAVNEFSLKGVDFQKFCMNGAALCALGKDCFLELAPDFVGDILWEHLKILQKE [E76K] | -0.053 ± 0.09 |
| GFTKEQQRLGIPKDPRQWTETHVRDWVMWAVNEFSLKGVDFQKFCMNGAALCALGKDCFLELAPDFVGDILWEHLYILQKE [E76Y] | 0.029 ± 0.036 |
| GFTKEQQRLGIPKDPRQWTETHVRDWVMWAVNEFSLKGVDFQKFCMNGAALCALGKDCFLELAPDFVGDILWEHLLILQKE [E76L] | -0.094 ± 0.043 |
| GFTKEQQRLGIPKDPRQWTETHVRDWVMWAVNEFSLKGVDFQKFCMNGAALCALGKDCFLELAPDFVGDILWEHLTILQKE [E76T] | -0.14 ± 0.065 |
| GFTKEQQRLGIPKDPRQWTETHVRDWVMWAVNEFSLKGVDFQKFCMNGAALCALGKDCFLELAPDFVGDILWEHLRILQKE [E76R] | -0.072 ± 0.035 |
| GFTKEQQRLGIPKDPRQWTETHVRDWVMWAVNEFSLKGVDFQKFCMNGAALCALGKDCFLELAPDFVGDILWEHLWILQKE [E76W] | -0.109 ± 0.051 |
| GFTKEQQRLGIPKDPRQWTETHVRDWVMWAVNEFSLKGVDFQKFCMNGAALCALGKDCFLELAPDFVGDILWEHLDILQKE [E76D] | -0.015 ± 0.059 |
| GFTKEQQRLGIPKDPRQWTETHVRDWVMWAVNEFSLKGVDFQKFCMNGAALCALGKDCFLELAPDFVGDILWEHLHILQKE [E76H] | -0.085 ± 0.091 |
| GFTKEQQRLGIPKDPRQWTETHVRDWVMWAVNEFSLKGVDFQKFCMNGAALCALGKDCFLELAPDFVGDILWEHLVILQKE [E76V] | -0.108 ± 0.045 |
| GFTKEQQRLGIPKDPRQWTETHVRDWVMWAVNEFSLKGVDFQKFCMNGAALCALGKDCFLELAPDFVGDILWEHLCILQKE [E76C] | -0.092 ± 0.051 |
| GFTKEQQRLGIPKDPRQWTETHVRDWVMWAVNEFSLKGVDFQKFCMNGAALCALGKDCFLELAPDFVGDILWEHLGILQKE [E76G] | -0.036 ± 0.033 |
| GFTKEQQRLGIPKDPRQWTETHVRDWVMWAVNEFSLKGVDFQKFCMNGAALCALGKDCFLELAPDFVGDILWEHLNILQKE [E76N] | 0.057 ± 0.32 |
| GFTKEQQRLGIPKDPRQWTETHVRDWVMWAVNEFSLKGVDFQKFCMNGAALCALGKDCFLELAPDFVGDILWEHLSILQKE [E76S] | -0.021 ± 0.037 |

| Variant | abundance fitness |
| --- | --- |
| GFTKEQQRLGIPKDPRQWTETHVRDWVMWAVNEFSLKGVDFQKFCMNGAALCALGKDCFLELAPDFVGDILWEHLFILQKE [E76F] | -0.273 ± 0.078 |
| GFTKEQQRLGIPKDPRQWTETHVRDWVMWAVNEFSLKGVDFQKFCMNGAALCALGKDCFLELAPDFVGDILWEHLECLQKE [I77C] | -0.021 ± 0.053 |
| GFTKEQQRLGIPKDPRQWTETHVRDWVMWAVNEFSLKGVDFQKFCMNGAALCALGKDCFLELAPDFVGDILWEHLEGLQKE [I77G] | 0.027 ± 0.035 |
| GFTKEQQRLGIPKDPRQWTETHVRDWVMWAVNEFSLKGVDFQKFCMNGAALCALGKDCFLELAPDFVGDILWEHLEMLQKE [I77M] | -0.009 ± 0.063 |
| GFTKEQQRLGIPKDPRQWTETHVRDWVMWAVNEFSLKGVDFQKFCMNGAALCALGKDCFLELAPDFVGDILWEHLELLQKE [I77L] | 0.053 ± 0.041 |
| GFTKEQQRLGIPKDPRQWTETHVRDWVMWAVNEFSLKGVDFQKFCMNGAALCALGKDCFLELAPDFVGDILWEHLEYLQKE [I77Y] | -0.043 ± 0.073 |
| GFTKEQQRLGIPKDPRQWTETHVRDWVMWAVNEFSLKGVDFQKFCMNGAALCALGKDCFLELAPDFVGDILWEHLEDLQKE [I77D] | -0.033 ± 0.1 |
| GFTKEQQRLGIPKDPRQWTETHVRDWVMWAVNEFSLKGVDFQKFCMNGAALCALGKDCFLELAPDFVGDILWEHLEKLQKE [I77K] | 0.052 ± 0.094 |
| GFTKEQQRLGIPKDPRQWTETHVRDWVMWAVNEFSLKGVDFQKFCMNGAALCALGKDCFLELAPDFVGDILWEHLEHLQKE [I77H] | 0.076 ± 0.1 |
| GFTKEQQRLGIPKDPRQWTETHVRDWVMWAVNEFSLKGVDFQKFCMNGAALCALGKDCFLELAPDFVGDILWEHLEPLQKE [I77P] | -0.346 ± 0.057 |
| GFTKEQQRLGIPKDPRQWTETHVRDWVMWAVNEFSLKGVDFQKFCMNGAALCALGKDCFLELAPDFVGDILWEHLEFLQKE [I77F] | -0.013 ± 0.067 |
| GFTKEQQRLGIPKDPRQWTETHVRDWVMWAVNEFSLKGVDFQKFCMNGAALCALGKDCFLELAPDFVGDILWEHLEWLQKE [I77W] | -0.033 ± 0.047 |
| GFTKEQQRLGIPKDPRQWTETHVRDWVMWAVNEFSLKGVDFQKFCMNGAALCALGKDCFLELAPDFVGDILWEHLERLQKE [I77R] | -0.025 ± 0.035 |
| GFTKEQQRLGIPKDPRQWTETHVRDWVMWAVNEFSLKGVDFQKFCMNGAALCALGKDCFLELAPDFVGDILWEHLETLQKE [I77T] | 0.01 ± 0.068 |
| GFTKEQQRLGIPKDPRQWTETHVRDWVMWAVNEFSLKGVDFQKFCMNGAALCALGKDCFLELAPDFVGDILWEHLEVLQKE [I77V] | 0.029 ± 0.037 |
| GFTKEQQRLGIPKDPRQWTETHVRDWVMWAVNEFSLKGVDFQKFCMNGAALCALGKDCFLELAPDFVGDILWEHLEELQKE [I77E] | -0.031 ± 0.067 |
| GFTKEQQRLGIPKDPRQWTETHVRDWVMWAVNEFSLKGVDFQKFCMNGAALCALGKDCFLELAPDFVGDILWEHLENLQKE [I77N] | 0.17 ± 0.12 |
